Where “and” joins values, the source holds several entries; their conditions need not be identical. Equal entries are not always repeated. Non-standard residues stand in square brackets, D forms with d. No end group written: not given here. pY = N[C@@H](Cc1ccc(OP(=O)(O)O)cc1)C(=O)O; Rhodamine = not defined here; rhodamine = not defined here
How the values were obtained:
Settings in all cases: both partners purified
GRB7 SH2 domain = molecular target: T1, GRB7 SH2 domain (human, UniProt Q14451 431-527); test: fluorescence polarisation; saturation binding in solution: rhodamine peptide fixed at 10 nM, protein titrated 0.002-10 uM, 20 min at room temperature; assay buffer 20 mM HEPES, 100 mM KCl, 0.1% Tween-20, 5 mM DTT, pH 7.8; apparent KD
T1 construct: GRB7, human; source: bacterial expression, purified

PTK6 SH2 domain = molecular target: T2, PTK6 SH2 domain (human, UniProt Q13882 78-170); test: as above
T2 construct: PTK6, human; source: bacterial expression, purified

[1] = molecular target: T3, PLCG1 C-terminal SH2 domain (human); test: SPR; Biacore 3000; 6X His SH2 proteins held on a Ni-NTA chip, dye-free peptides in solution, equilibrium
T3 construct: PLCG1, human; source: bacterial expression, purified
T3 sequence (P19174 whole entry, looked up): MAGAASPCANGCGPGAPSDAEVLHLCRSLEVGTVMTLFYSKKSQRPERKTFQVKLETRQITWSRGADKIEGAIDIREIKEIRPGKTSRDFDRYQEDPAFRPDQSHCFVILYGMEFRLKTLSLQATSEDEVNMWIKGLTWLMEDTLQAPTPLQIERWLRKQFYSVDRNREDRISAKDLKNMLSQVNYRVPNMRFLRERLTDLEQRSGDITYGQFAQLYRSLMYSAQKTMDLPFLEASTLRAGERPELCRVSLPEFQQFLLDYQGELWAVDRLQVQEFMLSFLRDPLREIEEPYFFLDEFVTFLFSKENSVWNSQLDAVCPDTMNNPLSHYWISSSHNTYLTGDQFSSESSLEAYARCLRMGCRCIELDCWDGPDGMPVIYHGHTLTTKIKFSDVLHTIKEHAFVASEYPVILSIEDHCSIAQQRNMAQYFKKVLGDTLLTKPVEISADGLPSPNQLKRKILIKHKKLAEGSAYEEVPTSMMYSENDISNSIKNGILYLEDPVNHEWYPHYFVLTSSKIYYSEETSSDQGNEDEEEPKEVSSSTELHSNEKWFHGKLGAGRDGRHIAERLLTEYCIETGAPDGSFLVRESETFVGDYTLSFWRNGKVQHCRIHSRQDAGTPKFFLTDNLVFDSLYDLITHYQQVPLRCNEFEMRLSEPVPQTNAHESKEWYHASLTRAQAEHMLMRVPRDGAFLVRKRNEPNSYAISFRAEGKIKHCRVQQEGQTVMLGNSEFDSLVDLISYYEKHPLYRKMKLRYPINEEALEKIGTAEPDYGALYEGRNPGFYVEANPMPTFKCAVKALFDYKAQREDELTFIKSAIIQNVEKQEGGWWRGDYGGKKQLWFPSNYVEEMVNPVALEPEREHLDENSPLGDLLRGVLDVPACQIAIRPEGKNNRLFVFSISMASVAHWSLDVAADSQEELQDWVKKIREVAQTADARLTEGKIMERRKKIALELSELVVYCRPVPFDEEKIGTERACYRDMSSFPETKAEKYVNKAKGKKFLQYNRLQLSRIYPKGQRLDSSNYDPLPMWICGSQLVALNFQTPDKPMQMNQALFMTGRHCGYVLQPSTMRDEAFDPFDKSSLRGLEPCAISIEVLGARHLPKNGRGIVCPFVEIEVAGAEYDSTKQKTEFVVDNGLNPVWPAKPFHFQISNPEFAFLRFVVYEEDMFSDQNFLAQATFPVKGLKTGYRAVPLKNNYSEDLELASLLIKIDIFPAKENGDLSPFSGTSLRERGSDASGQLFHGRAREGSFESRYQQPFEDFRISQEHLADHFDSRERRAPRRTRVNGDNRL

TNS3 SH2 domain = molecular target: T4, TNS3 SH2 domain (human, UniProt Q68CZ2 1172-1282); test: as above
T4 construct: TNS3, human; source: bacterial expression, purified
T4 sequence (looked up): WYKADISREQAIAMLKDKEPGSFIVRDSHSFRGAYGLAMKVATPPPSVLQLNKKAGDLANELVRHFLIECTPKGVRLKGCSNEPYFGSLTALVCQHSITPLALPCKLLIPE

[2] = molecular target: T5, SYK C-terminal SH2 domain (human); test: as above
T5 construct: SYK, human; source: bacterial expression, purified

[3] = molecular target: T6, PIK3R1 N-terminal SH2 domain (human); test: as above
T6 construct: PIK3R1, human; source: bacterial expression, purified

[4] = molecular target: T7, PIK3R3 C-terminal SH2 domain (human); test: as above
T7 construct: PIK3R3, human; source: bacterial expression, purified

VAV2 SH2 domain = molecular target: T8, VAV2 SH2 domain (human, UniProt P52735 673-767); test: as above
T8 construct: VAV2, human; source: bacterial expression, purified
T8 sequence (looked up): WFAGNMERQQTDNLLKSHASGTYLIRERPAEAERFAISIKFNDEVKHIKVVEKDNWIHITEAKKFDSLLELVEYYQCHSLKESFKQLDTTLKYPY

SH2D3A SH2 domain = molecular target: T9, SH2D3A SH2 domain (human, UniProt Q9BRG2 15-114); test: peptide or protein array; SH2/PTB proteins spotted on aldehyde slides, rhodamine peptide titrated in buffer B (20 mM HEPES, 100 mM KCl, 0.1% Tween-20, 5 mM DTT, pH 7.8), 1 h at room temperature; replicate assays
T9 construct: SH2D3A, human; source: bacterial expression, purified

GRAP2 SH2 domain = molecular target: T10, GRAP2 SH2 domain (human, UniProt O75791 58-149); test: as above
T10 construct: GRAP2, human; source: bacterial expression, purified
T10 sequence (looked up): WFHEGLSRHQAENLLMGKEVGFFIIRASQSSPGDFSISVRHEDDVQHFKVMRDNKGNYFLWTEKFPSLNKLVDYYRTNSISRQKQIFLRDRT

SYK tandem SH2 domains = SYK tandem SH2 domains (human); test: as above
BLK SH2 domain = molecular target: T11, BLK SH2 domain (human, UniProt P51451 124-220); test: as above
T11 construct: BLK, human; source: bacterial expression, purified

ABL2 SH2 domain = molecular target: T12, ABL2 SH2 domain (human, UniProt P42684 173-263); test: as above
T12 construct: ABL2, human; source: bacterial expression, purified
T12 sequence (looked up): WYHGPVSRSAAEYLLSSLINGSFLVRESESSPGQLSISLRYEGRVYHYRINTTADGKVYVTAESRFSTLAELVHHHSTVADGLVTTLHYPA

LCK SH2 domain = molecular target: T13, LCK SH2 domain (human, UniProt P06239 127-224); test: as above
T13 construct: LCK, human; source: bacterial expression, purified

SHF SH2 domain = molecular target: T14, SHF SH2 domain (human, UniProt Q7M4L6 323-418); test: as above
T14 construct: SHF, human; source: bacterial expression, purified
T14 sequence (looked up): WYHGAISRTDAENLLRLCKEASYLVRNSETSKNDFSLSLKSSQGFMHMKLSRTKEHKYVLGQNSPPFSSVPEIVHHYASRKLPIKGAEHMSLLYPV

YES1 SH2 domain = molecular target: T15, YES1 SH2 domain (human, UniProt P07947 158-255); test: as above
T15 construct: YES1, human; source: bacterial expression, purified

SUPT6H SH2 domain = molecular target: T16, SUPT6H SH2 domain (human, UniProt Q7KZ85 1325-1431); test: as above
T16 construct: SUPT6H, human; source: bacterial expression, purified

STAP1 SH2 domain = molecular target: T17, STAP1 SH2 domain (human, UniProt Q9ULZ2 177-280); test: as above
T17 construct: STAP1, human; source: bacterial expression, purified
T17 sequence (looked up): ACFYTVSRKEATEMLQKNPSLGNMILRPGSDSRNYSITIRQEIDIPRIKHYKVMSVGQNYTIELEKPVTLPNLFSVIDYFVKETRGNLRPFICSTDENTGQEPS

SHC1 domain construct = molecular target: T18, SHC1 domain construct (human); test: as above
T18 chain: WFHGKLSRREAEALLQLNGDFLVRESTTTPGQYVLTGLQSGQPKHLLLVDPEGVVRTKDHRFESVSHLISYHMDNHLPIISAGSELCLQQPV

ITK SH2 domain = molecular target: T19, ITK SH2 domain (human, UniProt Q08881 239-338); test: as above
T19 construct: ITK, human; source: bacterial expression, purified
T19 sequence (looked up): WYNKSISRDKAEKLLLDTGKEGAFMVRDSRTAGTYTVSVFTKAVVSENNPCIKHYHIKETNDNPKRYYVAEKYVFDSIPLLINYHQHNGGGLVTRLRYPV

BLNK SH2 domain = molecular target: T20, BLNK SH2 domain (human, UniProt Q8WV28 346-453); test: as above
T20 construct: BLNK, human; source: bacterial expression, purified
T20 sequence (looked up): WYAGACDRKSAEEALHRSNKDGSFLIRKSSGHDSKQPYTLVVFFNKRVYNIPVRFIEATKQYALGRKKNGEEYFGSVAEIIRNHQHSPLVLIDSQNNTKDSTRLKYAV

SRC SH2 domain = molecular target: T21, SRC SH2 domain (human, UniProt P12931-1 151-248); test: fluorescence polarisation; saturation binding in solution: rhodamine peptide fixed at 10 nM, protein titrated 0.002-10 uM, 20 min at room temperature; assay buffer 20 mM HEPES, 100 mM KCl, 0.1% Tween-20, 5 mM DTT, pH 7.8; apparent KD
T21 construct: SRC, human; also called c-Src; source: bacterial expression, purified

T11 sequence (P51451 124-220): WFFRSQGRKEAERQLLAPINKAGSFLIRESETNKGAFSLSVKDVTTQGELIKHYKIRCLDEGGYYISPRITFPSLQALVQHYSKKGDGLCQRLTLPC
T13 sequence (P06239 127-224): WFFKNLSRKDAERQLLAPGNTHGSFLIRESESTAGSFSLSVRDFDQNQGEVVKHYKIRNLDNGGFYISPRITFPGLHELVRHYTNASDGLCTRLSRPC
T15 sequence (P07947 158-255): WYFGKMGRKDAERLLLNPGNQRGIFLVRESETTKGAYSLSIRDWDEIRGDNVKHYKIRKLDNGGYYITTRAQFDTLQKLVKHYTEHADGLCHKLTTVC
T9 sequence (Q9BRG2 15-114): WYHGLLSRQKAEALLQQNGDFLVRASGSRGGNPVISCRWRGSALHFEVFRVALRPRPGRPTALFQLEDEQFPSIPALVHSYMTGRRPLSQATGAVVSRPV
T16 sequence (Q7KZ85 1325-1431): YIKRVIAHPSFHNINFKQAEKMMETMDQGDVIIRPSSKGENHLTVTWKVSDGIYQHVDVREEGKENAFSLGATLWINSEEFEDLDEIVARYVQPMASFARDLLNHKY
T1 sequence (Q14451 431-527): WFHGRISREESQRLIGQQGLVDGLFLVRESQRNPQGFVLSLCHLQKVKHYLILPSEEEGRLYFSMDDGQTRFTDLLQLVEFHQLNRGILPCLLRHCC
T2 sequence (Q13882 78-170): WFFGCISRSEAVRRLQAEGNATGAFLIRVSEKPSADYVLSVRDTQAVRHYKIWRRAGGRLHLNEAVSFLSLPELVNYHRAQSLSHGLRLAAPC

B1: ErbB3pY1197 phosphopeptide, rhodamine-labelled (peptide)
peptide: Rhodamine-EDEE[pY]EYMNRRRD
modifications: reading uncertain
notes: human ErbB3 around Tyr1197; also called labeled peptide 4; source: synthetic peptide
Kd (GRB7 SH2 domain): 130 nM
Kd (PTK6 SH2 domain): 5.79 µM

B2: MET pY1313 phosphopeptide, dye-free (peptide)
chain: PDPL[pY]EVMLKCW
Kd [1]: 486 nM
Kd (TNS3 SH2 domain): 132 nM
Kd [2]: 1660 nM
Kd [3]: 53 nM
Kd [4]: 56 nM
Kd (VAV2 SH2 domain): 2510 nM

B3: ErbB2 pY1112 phosphopeptide, rhodamine-labelled, for protein microarrays (peptide)
chain: Rhodamine-PLQR[pY]SEDPTVPD
modifications: reading uncertain
Kd (SH2D3A SH2 domain): 26.6 µM
Kd (GRAP2 SH2 domain): 7.15 µM
Kd (SYK tandem SH2 domains): 893 nM and 803 nM
Kd (BLK SH2 domain): 3220 nM and 1170 nM and 2070 nM
Kd (ABL2 SH2 domain): 1840 nM
Kd (LCK SH2 domain): 10.3 µM and 8.93 µM
Kd (SHF SH2 domain): 2970 nM
Kd (YES1 SH2 domain): 720 nM and 1600 nM
Kd (SUPT6H SH2 domain): 1040 nM
Kd (STAP1 SH2 domain): 50 nM
Kd (SHC1 domain construct): 1260 nM and 3060 nM
Kd (ITK SH2 domain): 52.9 µM
Kd (BLNK SH2 domain): 4.9 µM

B4: ErbB3pY1222 phosphopeptide, rhodamine-labelled (peptide)
peptide: rhodamine-EELG[pY]EYMDVGSD
modifications: reading uncertain
notes: human ErbB3 around Tyr1222; also called labeled peptide 5; source: synthetic peptide
Kd (SRC SH2 domain): 2330 nM

From PMC3433420, “Comprehensive Binary Interaction Mapping of SH2 Domains via Fluorescence Polarization Reveals Novel Functional Diversification of ErbB Receptors” (PLoS ONE, 2012)
